Measurements from US20050063948A1 (published 2005).

Target: T1, αvβ3 integrin on the surface of M21 human melanoma cells (human, UniProt P06756 31-1048; P05106 27-788)
T1 construct: whole, on cells; also called αvβ3 integrin heterodimer
Assay: immunofluorescence on M21 cells, detected with anti-mouse IL-12 p40 antibody and FITC secondary
Excerpt: The specificity of mrIL-12vp binding to αᵥβ₃ integrin-positive cell lines was subsequently determined. M21, a human melanoma line which expresses αᵥβ₃ integrin on its surface (Felding-Habermann, et al. (1992) J. Clin. Invest. 89:2018-2022), was used as a αᵥβ₃ integrin-positive cell line for this analysis. Prior to the studies with mrIL-12vp, the expression of αᵥβ₃ integrin was confirmed based on intense labeling of M21 cells with the anti-αᵥβ₃ integrin antibody LM609 using flow cytometry. […] Immunofluorescence evaluation of cells grown on chamber slides confirmed specific binding of mrIL-12vp, but not mrIL-12 to M21 cells. There was no binding of mrIL-12 or mrIL-12vp to Saos-2 cells.
Immunofluorescence labeling was performed in accordance with standard methods (Teng, et al. (2002) Am. J. Physiol. Renal Physiol. 282:F1075-F1083). M21 or Saos-2 cells were incubated with 5 μg of either mrIL-12 or mrIL-12vp for 30 minutes at 37 C in a 5% CO₂ atmosphere. The cells were rinsed with PBS, and then fixed with freshly prepared 4% paraformaldehyde for 10 minutes at room temperature. Detection of mrIL-12 or mrIL-12vp binding to cells used an anti-mouse IL-12 p40 antibody, followed by three washes with PBS and incubation with FITC-conjugated goat anti-mouse IgG (1:200) for 1 hour in the dark. As a control, anti-mouse IL-12 p40 was omitted from the labeling process.

T1 sequence (P06756 31-1048, chain 1 of 2): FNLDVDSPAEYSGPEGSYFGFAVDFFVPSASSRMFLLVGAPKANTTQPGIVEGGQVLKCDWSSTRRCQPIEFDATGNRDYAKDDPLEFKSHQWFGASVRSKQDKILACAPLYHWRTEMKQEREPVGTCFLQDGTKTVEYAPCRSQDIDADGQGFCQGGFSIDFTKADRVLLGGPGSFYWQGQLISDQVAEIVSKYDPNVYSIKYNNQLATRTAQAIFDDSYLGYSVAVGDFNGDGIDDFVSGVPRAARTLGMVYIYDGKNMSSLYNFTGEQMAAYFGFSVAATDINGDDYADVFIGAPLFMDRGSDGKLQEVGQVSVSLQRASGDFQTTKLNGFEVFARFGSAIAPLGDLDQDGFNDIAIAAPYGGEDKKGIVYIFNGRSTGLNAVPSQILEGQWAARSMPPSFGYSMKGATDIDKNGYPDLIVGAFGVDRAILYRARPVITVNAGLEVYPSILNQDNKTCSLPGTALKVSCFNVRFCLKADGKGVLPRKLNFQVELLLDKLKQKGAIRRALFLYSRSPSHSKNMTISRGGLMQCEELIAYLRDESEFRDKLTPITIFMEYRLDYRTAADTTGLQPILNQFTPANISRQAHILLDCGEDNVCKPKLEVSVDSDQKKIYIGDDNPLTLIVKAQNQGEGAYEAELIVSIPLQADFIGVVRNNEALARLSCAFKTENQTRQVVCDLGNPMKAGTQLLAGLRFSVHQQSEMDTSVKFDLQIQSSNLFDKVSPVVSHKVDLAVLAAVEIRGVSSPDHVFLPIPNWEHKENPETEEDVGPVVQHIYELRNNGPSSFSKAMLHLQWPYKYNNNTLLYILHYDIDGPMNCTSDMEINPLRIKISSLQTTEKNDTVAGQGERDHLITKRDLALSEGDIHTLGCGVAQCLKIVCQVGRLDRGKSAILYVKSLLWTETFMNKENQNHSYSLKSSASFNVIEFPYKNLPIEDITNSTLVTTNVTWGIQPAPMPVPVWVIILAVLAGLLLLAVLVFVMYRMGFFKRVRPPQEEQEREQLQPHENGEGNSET
T1 sequence (P05106 27-788, chain 2 of 2): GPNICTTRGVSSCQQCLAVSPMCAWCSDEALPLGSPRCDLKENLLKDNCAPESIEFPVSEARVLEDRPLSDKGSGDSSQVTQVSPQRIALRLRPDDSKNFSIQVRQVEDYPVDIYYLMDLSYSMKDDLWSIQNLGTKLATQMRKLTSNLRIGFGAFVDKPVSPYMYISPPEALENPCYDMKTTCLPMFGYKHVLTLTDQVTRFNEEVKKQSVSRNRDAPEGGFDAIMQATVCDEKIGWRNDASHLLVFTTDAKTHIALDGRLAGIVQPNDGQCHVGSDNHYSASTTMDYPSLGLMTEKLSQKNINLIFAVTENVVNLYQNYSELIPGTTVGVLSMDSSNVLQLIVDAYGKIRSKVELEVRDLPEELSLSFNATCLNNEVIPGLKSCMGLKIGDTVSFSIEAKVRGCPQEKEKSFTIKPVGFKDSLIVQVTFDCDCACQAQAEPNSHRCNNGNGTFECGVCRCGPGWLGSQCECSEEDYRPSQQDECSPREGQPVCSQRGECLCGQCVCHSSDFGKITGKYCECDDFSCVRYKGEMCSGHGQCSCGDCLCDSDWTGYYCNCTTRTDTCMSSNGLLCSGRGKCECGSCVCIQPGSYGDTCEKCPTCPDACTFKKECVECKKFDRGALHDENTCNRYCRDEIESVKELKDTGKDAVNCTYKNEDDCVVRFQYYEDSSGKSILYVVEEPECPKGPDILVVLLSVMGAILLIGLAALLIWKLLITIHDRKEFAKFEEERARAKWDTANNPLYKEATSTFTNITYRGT

binding result: no binding (tested: 5 µg)
B1: murine recombinant IL-12 (mrIL-12) (ligand, mouse)
chain 1: RVIPVSGPARCLSQSRNLLKTTDDMVKTAREKLKHYSCTAEDIDHEDITRDQTSTLKTCLPLELHKNESCLATRETSSTTRGSCLPPQKTSLMMTLCLGSIYEDLKMYQTEFQAINAALQNHNHQQIILDKGMLVAIDELMQSLNHNGETLRQKPPVGEADPYRVKMKLCILLHAFSTRVVTINRVMGYLSSA
chain 2: MWELEKDVYVVEVDWTPDAPGETVNLTCDTPEEDDITWTSDQRHGVIGSGKTLTITVKEFLDAGQYTCHKGGETLSHSHLLLHKKENGIWSTEILKNFKNKTFLKCEAPNYSGRFTCSWLVQRNMDLKFNIKSSSSSPDSRAVTCGMASLSAEKVTLDQRDYEKYSVSCQEDVTCPTAEETLPIELALEARQQNKYENYSTSFFIRDIIKPDPPKNLQMKPLKNSQVEVSWEYPDSWSTPHSYFSLKFFVRIQRKKEKMKETEEGCNQKGAFLVEKTSTEVQCKGGNVCVQAQDRYYNSSCSKWACVPCRVRS
notes: Bought
